Reference: paper PMC12209437, “Tailoring a novel colorectal cancer stem cell-targeted therapy by inhibiting the SMYD3/c-MYC axis” (Signal Transduction and Targeted Therapy, 2025)

B1: P14 ext2 (P36YFYCDEEENFYQQQQQSEL55) (peptide)
peptide: PYFYCDEEENFYQQQQQSEL
notes: numbers count on the 454-residue isoform; source: bought: custom purchased from Thermo Fisher Scientific
B2: full-length HIS-tagged SMYD3 recombinant protein (enzyme, human, UniProt Q9H7B4 1-428, looked up)
chain: MEPLKVEKFATAKRGNGLRAVTPLRPGELLFRSDPLAYTVCKGSRGVVCDRCLLGKEKLMRCSQCRVAKYCSAKCQKKAWPDHKRECKCLKSCKPRYPPDSVRLLGRVVFKLMDGAPSESEKLYSFYDLESNINKLTEDKKEGLRQLVMTFQHFMREEIQDASQLPPAFDLFEAFAKVICNSFTICNAEMQEVGVGLYPSISLLNHSCDPNCSIVFNGPHLLLRAVRDIEVGEELTICYLDMLMTSEERRKQLRDQYCFECDCFRCQTQDKDADMLTGDEQVWKEVQESLKKIEELKAHWKWEQVLAMCQAIISSNSERLPDINIYQLKVLDCAMDACINLGLLEEALFYGTRTMEPYRIFFPGSHPVRGVQVMKVGKLQLHQGMFPQAMKNLRLAFDIMRVTHGREHSLIEDLILLLEECDANIRAS
notes: SMYD3 (lysine methyltransferase SET and MYND Domain Containing 3), full length, from the plasmid pET28-MHL-SMYD3 (Addgene 32048); no species is printed for the Addgene plasmid; also called HIS-SMYD3; HIS-SMYD3 fusion protein; source: E. coli BL21 (DE3), purified (Dynabeads HIS-Tag Isolation and Pulldown)
B3: P14 ext1 (E42EENFYQQQ50) (peptide)
peptide: EEENFYQQQ
notes: as for B1
B4: FLAG c-MYC M3 (aa 1-165) (domain or fragment, human, UniProt P01106-2 1-165, looked up)
chain: MDFFRVVENQQPPATMPLNVSFTNRNYDLDYDSVQPYFYCDEEENFYQQQQQSELQPPAPSEDIWKKFELLPTPPLSPSRRSGLCSPSYVAVTPFSLRGDNDGGGGSFSTADQLEMVTELLGGDMVNQSFICDPDDETFIKNIIIQDCMWSGFSAAAKLVSEKLA
notes: c-MYC, human, residues 1-165 of the 454-residue form; amplified from p3xFLAG CMV14 c-MYC-WT, itself made from pcDNA3-c-MYC (Addgene 16011); Vector p3xFLAG-CMV14 (Sigma E7908); also called p3xFLAG CMV14 c-MYC-M3

Legend:
Settings in all cases: both partners purified
[1] = target: B2; assay: pull-down; competition assay: 500 ng HIS-SMYD3 and 200 ng untagged full-length c-MYC, 1 h at 4 °C, with escalating doses (0, 1, 5, 25, 125 µM) of P14, P14ext1 or P14ext2; precipitated on histidine beads, immunoblot with anti-c-MYC and anti-HIS
[2] = target: T1, untagged human full-length c-MYC protein (human, UniProt P01106-2 1-454); assay: pull-down; HIS-SMYD3 incubated with recombinant c-MYC or FLAG c-MYC fragments for 1 h at 4 °C, precipitated with Dynabeads HIS-Tag Isolation and Pulldown, washed in buffer A (20 mM Tris-HCl pH 8, 150 mM KCl, 5 mM MgCl2, 0.2 mM EDTA, 10% glycerol, 0.1% NP-40, 1 mM DTT), immunoblot
T1 construct: c-MYC, human, full length, untagged; also called c-MYC recombinant protein; untagged recombinant c-MYC protein; source: bought: Abcam ab169901, expressed in E. coli

[3] = target: B2; assay: as above

| binding result [1] | Binder | further results |
| --- | --- | --- |
| binds | B1 | – |
| – | B2 | binding result [2]: binds |
| binds | B3 | – |
| – | B4 | binding result [3]: binds |
